Consider one molecule from patent US20240279357A1 (THERINI BIO, published 2024).

This experiment has as its target T1, human Fibrin (human fibrinogen clotted on the plate with thrombin and CaCl2) (human, UniProt P02671 36-629; P02675 45-491; P02679 27-437).
T1 construct: Made in the ELISA wells from the human fibrinogen by thrombin and CaCl2, 1 hour at 37 C, then dried
T1 sequence (looked up) 1: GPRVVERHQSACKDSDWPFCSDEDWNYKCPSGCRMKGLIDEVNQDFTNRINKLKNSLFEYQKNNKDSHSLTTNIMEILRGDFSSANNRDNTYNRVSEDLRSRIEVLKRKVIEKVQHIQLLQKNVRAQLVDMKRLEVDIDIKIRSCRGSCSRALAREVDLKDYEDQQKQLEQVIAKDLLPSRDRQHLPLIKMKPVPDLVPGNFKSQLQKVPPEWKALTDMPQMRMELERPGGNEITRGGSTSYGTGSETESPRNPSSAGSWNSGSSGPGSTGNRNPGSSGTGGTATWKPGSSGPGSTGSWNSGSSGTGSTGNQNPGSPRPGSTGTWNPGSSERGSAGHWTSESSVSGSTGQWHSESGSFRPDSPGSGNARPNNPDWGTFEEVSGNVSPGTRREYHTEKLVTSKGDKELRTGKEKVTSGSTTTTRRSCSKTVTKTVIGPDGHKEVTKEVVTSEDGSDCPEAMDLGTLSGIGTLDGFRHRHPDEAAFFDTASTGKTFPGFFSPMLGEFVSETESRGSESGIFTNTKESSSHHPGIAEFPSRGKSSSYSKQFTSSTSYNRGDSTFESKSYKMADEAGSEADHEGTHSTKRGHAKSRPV
T1 sequence (looked up) 2: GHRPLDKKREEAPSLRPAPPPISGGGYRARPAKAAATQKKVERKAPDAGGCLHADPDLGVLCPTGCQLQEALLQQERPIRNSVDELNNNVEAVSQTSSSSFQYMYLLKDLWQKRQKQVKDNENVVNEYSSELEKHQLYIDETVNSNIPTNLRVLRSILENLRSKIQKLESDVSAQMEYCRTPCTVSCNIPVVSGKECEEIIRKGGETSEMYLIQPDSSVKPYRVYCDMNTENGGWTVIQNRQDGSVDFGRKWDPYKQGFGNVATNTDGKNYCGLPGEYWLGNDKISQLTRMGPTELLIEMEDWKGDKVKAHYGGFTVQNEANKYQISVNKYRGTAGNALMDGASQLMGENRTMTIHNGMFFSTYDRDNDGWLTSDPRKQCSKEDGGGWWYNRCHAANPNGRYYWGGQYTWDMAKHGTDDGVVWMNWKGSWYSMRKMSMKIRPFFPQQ
T1 sequence (looked up) 3: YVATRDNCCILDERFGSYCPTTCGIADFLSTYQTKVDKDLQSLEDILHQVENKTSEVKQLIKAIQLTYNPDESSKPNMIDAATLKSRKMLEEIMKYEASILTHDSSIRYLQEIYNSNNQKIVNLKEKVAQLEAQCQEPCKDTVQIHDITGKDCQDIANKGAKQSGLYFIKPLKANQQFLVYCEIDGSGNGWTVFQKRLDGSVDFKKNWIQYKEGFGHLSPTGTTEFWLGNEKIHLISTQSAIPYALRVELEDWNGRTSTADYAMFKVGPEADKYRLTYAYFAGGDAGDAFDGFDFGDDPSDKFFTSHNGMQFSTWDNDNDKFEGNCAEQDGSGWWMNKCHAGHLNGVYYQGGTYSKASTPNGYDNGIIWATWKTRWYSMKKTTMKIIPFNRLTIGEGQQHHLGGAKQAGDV
Briefly: ELISA on plate-coated human fibrin (fibrinogen clotted in the well with thrombin/CaCl2), antibody titrated, A450. The procedure: The humanized antibodies affinity for fibrinogen, fibrin and P2 peptide were assessed by Enzyme-linked immunosorbent assays (ELISA)s (FIGS. 7-16). ELISAs for fibrinogen binding were performed using plasminogen-depleted human Fibrinogen (EMD/Calbiochem). […] IgG1-depleted Fibrinogen (FGN) in 20 mM HEPES/Saline buffer was added to each well of half of a 96-well Nunc Maxisorp™ ELISA plate. The ELISAs for fibrin binding were prepared by adding 50 mL of 20 mM HEPES/Saline buffer containing 14 mM CaCl₂, and 2 units thrombin to each well of the second half of the Nunc Maxisorp™ ELISA plate. 50 mL of 20 mg fibrinogen in 20 mM HEPES/Saline buffer were then added to a total volume of 100 mL. Plates were placed in a 37° C. incubator for 1 hour to allow fibrinogen to clot into fibrin and subsequently placed overnight into a plate dryer at 37° C. overnight. The ELISAs for P2 peptide were prepared by addition of […] of 30 mM P2 peptide in 20 mM HEPES/Saline buffer to each well of a 96-well Nunc Maxisorp™ ELISA plate. Plates were transferred to the plate dryer and dried overnight at 37° C. All ELISAs were preformed using Nunc MaxiSorp 96-well ELISA plates. Blocking was performed using 100 mL 5% BSA in DPBS are incubated at RT for 1 hour. Plates were washed 5× in DPBS containing 0.05% Tween-20 (EL406 was used for the addition of wash buffer only). […]
Background: An ELISA detects its analyte on a solid surface through an enzyme-linked reagent.

B1: humanized VH4/Vκ1 antibody (antibody, IgG1, V domains shown)
VH: QVQLVQSGAEVKKPGSSVKVSCKASGYTFTSYWIHWVRQAPGQGLEWIGLIDPSDSYTNYNQKFRGRVTITVDTSTSTAYMELSSLRSEDTAVYYCASSDPTGCWGQGTTVTVSS
VL: DIVMTQAAFSNPITPGTPASISCRSSKSLLHSSGITYLSWYLQKPGQSPQLLIYQMSNLASGVPDRFSSSGSGTDFTLRISRVEAEDVGVYYCAQNLELPLTFGQGTKLEIK
notes: Expressed as IgG1; also called VH4/VK1; VH4Vk1
By EC50 (read off the curve) is commonly meant the concentration at which the effect is half-maximal. Take B1: the “EC50 (read off the curve)” value was approximately 300 nM.
